Where a chain is given by its changes, count along the chain named.
T1: recombinant histidine-tagged human E-selectin (Sino Biologicals; 13025-H08H) (human, UniProt P16581 22-556)
T1 construct: also called recombinant human E-selectin; soluble recombinant human E-selectin
T1 sequence (looked up): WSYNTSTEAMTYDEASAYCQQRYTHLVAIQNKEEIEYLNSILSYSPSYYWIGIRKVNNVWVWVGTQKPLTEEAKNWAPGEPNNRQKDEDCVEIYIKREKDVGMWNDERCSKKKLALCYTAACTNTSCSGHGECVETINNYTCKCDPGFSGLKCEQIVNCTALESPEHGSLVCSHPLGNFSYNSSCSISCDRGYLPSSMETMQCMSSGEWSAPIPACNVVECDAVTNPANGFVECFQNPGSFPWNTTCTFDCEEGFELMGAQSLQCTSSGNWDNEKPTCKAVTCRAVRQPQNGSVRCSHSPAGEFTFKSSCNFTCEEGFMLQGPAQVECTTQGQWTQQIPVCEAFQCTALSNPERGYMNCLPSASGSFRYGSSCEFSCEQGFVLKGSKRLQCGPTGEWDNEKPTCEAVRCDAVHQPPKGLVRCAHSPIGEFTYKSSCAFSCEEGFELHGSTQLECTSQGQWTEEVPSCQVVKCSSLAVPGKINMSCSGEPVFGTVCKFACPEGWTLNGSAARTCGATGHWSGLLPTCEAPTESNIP

T2: recombinant histidine-tagged cynomolgus monkey E-selectin (Sino Biologicals; 190169-C08H) (cynomolgus monkey, UniProt A0A2K5U7H9 22-554)
T2 construct: also called recombinant cynomolgus monkey E-selectin
T2 sequence: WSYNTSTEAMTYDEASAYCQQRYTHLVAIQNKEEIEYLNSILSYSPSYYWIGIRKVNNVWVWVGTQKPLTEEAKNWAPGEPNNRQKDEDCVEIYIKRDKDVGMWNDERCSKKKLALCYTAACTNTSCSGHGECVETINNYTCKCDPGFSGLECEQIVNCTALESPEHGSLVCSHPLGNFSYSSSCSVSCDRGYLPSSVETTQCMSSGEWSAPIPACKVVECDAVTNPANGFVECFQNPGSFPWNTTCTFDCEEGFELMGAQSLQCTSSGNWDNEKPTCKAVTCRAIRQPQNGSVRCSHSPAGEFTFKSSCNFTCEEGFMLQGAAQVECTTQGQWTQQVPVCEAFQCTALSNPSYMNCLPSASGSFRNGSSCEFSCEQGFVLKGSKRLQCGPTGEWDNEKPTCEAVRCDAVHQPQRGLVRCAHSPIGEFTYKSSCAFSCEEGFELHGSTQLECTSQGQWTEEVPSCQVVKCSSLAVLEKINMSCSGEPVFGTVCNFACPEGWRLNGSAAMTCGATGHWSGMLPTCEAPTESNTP

B1: anti-E-selectin antibody 0164 chimera (antibody, human IgG1, kappa, V domains shown)
VH: EVQLQQSGAEFGKPGTSVKLSCKVSGYNIRSSYMHWVNQRPGKGLEWIGRIDPANGNTIYAEKFKIKAILTADSSSNTAYMQLSQLKSDDTAIYFCAMDLYSTSEYWGQGVMVTVSS
VL: DIQMTQSPSFLSASVGDRVTINCKTSQNINRYLNWYQQKLGEAPKLLIYNANSLQTGIPSRFSASGSGTDFTLTINSLQPEDVATYFCLQDNSWPLTFGSGTKLEIKR
notes: rat VH/VL on effector-null human IgG1 and human kappa
B2: optimized anti-E-selectin antibody 1282 (antibody, human IgG1, kappa, V domains shown)
VH: EVQLVESGGGLVQPGGSLRLSCAASGYAIRSAYMHWVRQAPGKGLEWVARIDPANGNTIYVDSVEGRFTISADNAKNSAYLQMNSLRAEDTAVYYCAMDLYSTSEYWGQGTLVTVSS
VL: DIQMTQSPSSLSASVGDRVTITCKTSQNIERYLNWYQQKPGKAPKLLIYAASSLQSGVPSRFSGSGSGTDFTLTISSLQPEDFATYFCLQDNAWPLTFGQGTKVEIKR
notes: effector-null human IgG1, kappa
B3: optimized anti-E-selectin antibody 1448 (antibody, human IgG1, kappa, V domains shown)
VH: B2 VH with E65K, G66E
VL: B2 VL
notes: as for B2
B4: optimized anti-E-selectin antibody 1444 (antibody, human IgG1, kappa, V domains shown)
VH: B2 VH with E65T
VL: B2 VL
notes: as for B2
B5: optimized anti-E-selectin antibody 1284 (antibody, human IgG1, kappa, V domains shown)
VH: B2 VH with D62E
VL: B2 VL
notes: as for B2

molecular target: T1, recombinant histidine-tagged human …; assay: competition ELISA, His-tagged E-selectin on Ni-NTA plate vs HRP-conjugated sialyl Lewis A
Procedure: (§1) Recombinant histidine-tagged E-selectin; cynomolgus monkey E-selectin (Sino Biologicals; 190169-C08H) and human E-selectin (Sino Biologicals; 13025-H08H) stock solutions were prepared to a final concentration of 3 μg/mL in phosphate buffered saline (PBS) without calcium and magnesium. One hundred μL per well of the diluted recombinant E-selectin protein was added into a Ni-NTA HisSorb 96 well plate (Qiagen, 35061) and plates were incubated on an orbital shaker at room temperature for 2 hours. Sialyl Lewis A polyacrylamide biotin, a synthetic E-selectin ligand (GlycoTech corporation 01-044), was conjugated to streptavidin HRP (horse radish peroxidase) (Ultra Streptavidin HRP, Thermo Scientific N504) and diluted in assay diluent containing 2 mM calcium chloride (BD OptEIA buffer; BD Biosciences, 555213).
(§2) Following the incubation, the plates were washed 5 times with 200 μL of wash buffer containing 2 mM of calcium chloride (50 mM TRIS [trisaminomethane]; 150 mM sodium chloride, 0.05% polysorbate 20, pH 7.4; 2 mM of calcium chloride). […] The final antibody concentration ranged from 200 nM to 0.09 nM and the final concentration of HRP conjugated Sialyl Lewis A was 5 μg/mL. Plates were washed as mentioned before, and 100 μL per well of 1-Step Ultra TMB substrate (Thermo Scientific, 34028) was added and incubated for 5 minutes at room temperature. Reactions were stopped with 100 μl of 2M sulfuric acid and absorbance read at 450 nm (Spectramax M5e). Data were analyzed and graphed using GraphPad Prism software (Version 8.0.2).

| IC50 | Binder |
| --- | --- |
| 3.39 nM | B1 |
| 3.39 nM | B2 |
| 2.96 nM | B3 |
| 3.01 nM | B4 |
| 3.59 nM | B5 |

molecular target: T2, recombinant histidine-tagged cynomolgus …; assay: as above
Procedure: as §1, §2

| IC50 | Binder |
| --- | --- |
| 3.29 nM | B1 |
| 3.23 nM | B2 |
| 2.74 nM | B3 |
| 2.91 nM | B4 |
| 3.39 nM | B5 |
